Source: patent publication US7378498B2, “Protein encoded by a nucleic acid” (The Johns Hopkins University School of Medicine, priority 1998, dated 2008)

Tests used:
[1] = target: binding of mGluR1a or mGluR5 to each of the Homer family members; assay: Synthetic peptide block of mGluR1a/mGluR5 binding to Homer family members; details: synthetic 10 mer peptides, read-out: peptide concentration at which approximately half of the binding was blocked
Procedure: This exquisite sensitivity of Homer binding to changes in single amino acids within the Homer-ligand site was confirmed in other Homer-interacting proteins including mGluR1a (Tu et al., 1998), Shank (Tu et al., 1999), and I42 (see below). To further confirm that the interaction was mediated by a direct interaction at the Homer-ligand site (as opposed to a secondary allosteric effect on a remote binding site), synthetic 10-mer peptides with either the wild type, or F-to-R mutation were prepared. The wild type peptide blocked binding of mGluR1a or mGluR5 to each of the Homer family members (Tu et al., 1998). Approximately half of the binding was blocked at a peptide concentration of 3.4 micromolar.
Mutations of mGluR5 were initially tested in the context of a 250aa C-terminal fragment, but were also determined to have an identical effect on binding when placed in the full length mGluR5 protein (Tu et al., 1998). This exquisite sensitivity of Homer binding to changes in single amino acid within the Homer-ligand site has been confirmed in other Homer-interacting proteins including mGluR1a (Tu et al., 1998), Shank (Tu et al., 1999) and I42 (see below). […] Approximately half of the binding was blocked at a peptide concentration of 3.4 micromolar.

[2] = tested on: mGluR-evoked Ca^+2 responses in Purkinje cells; assay: Fura-2 ratio imaging of quisqualate-evoked Ca2+ mobilization in transfected cerebellar Purkinje cells; format: cell-based, mouse; details: mean±SEM; transfected Purkinje cells, quisqualate micropressure pulse, Ca^+2-free external saline
Excerpt: The truncated Homer protein used lacks the coiled-coil domain and is unable to form a bridge linking the mGluR at the cell surface with intracellular inositol trisphosphate receptors. The truncated form of Homer protein resembled Homer 1a with the exception of 11 residues at the carboxy-terminal. This form of Homer results in enhanced expression of Homer protein as compared with transfection of Homer 1a in heterologous cells. The Homer protein was introduced into Purkinje cells in primary cerebellar cultures and glutamate induced effects on calcium mobilization was measured.
Embryonic mouse cerebellar cultures were prepared and maintained according to the method of Schilling et al. (Schilling et al., Neuron 7:891 1991). At 4-5 DIV, cultures were transfected with plasmids coding for E-GFP (Clontech) and either full-length Homer 1b or an IEG form of Homer 1. The IEG form of Homer 1 was a 186 amino acid amino-terminal fragment of Homer 1b. Plasmids were purified by cesium banding. Three combinations of the plasmids were transfected. Group I (control), 20 Tg of E-GFP and 40 Tg of pRK5 vector; group II, 20 Tg of E-GFP and 40 Tg of pRK5 Homer 1 IEG; group III: 20 Tg of E-GFP and 40 Tg of pRK5 Homer 1b. Plasmid DNA was mixed with gold particles (0.6 micron), and coated onto plastic tubing. DNA was then ballistically transfected into cells according to the manufacturer's protocol (Helios Gene Gun System, BIO-RAD). After transfection, cultures were returned to the incubator and maintained for an additional […] for a total of 7-8 DIV at the time of use for imaging experiments.
Patch electrodes were attached to the somata of GFP-expressing Purkinje cells and a holding potential of −60 mV was applied. Micropressure electrodes (1 Tm tip diameter) were filled with quisqualate (100 Tm in external saline) and were positioned ˜20 Tm away from large-caliber dendrites. Test pulses were delivered using positive pressure (6 psi, 1 sec). Cells were bathed in a solution that contained (in mM) NaCl (140), KCl (5), EGTA (0.2), MgCl2 (0.8), HEPES (10), glucose (10), tetrodotoxin (0.005), and picrotoxin (0.1), adjusted to pH 7.35 with NaOH, which flowed at a rate of 0.5 ml/m The recording electrode contained CsCl (135), HEPES (10), fura-2 K5 salt (0.2), and Na2-ATP (4), adjusted to pH 7.35 with CSOH. Patch electrodes yielded a resistance of 3-5 MA when measured with the internal and external salines described above.
Fura-2 ratio imaging of intracellular free Ca^2+, was accomplished by measuring the background corrected fluorescence ratio at 340 and 380 nm excitation using a cooled CCD camera system, as previously described (Linden et al., J Neurosci 15:5098 1995). Exposure times were 200 msec per single wavelength image. Experiments were conducted at room temperature. Enhanced GFP is weakly excited by illumination in the 380-400 nm spectrum. Based upon the bandpass characteristics of our 340HT15 and 380HT10 excitation filters and the absorption spectrum of enhanced GFP (Clontech), we estimate that <1% of the signal at 340 nm excitation and <5% of the signal at 380 nm excitation is contributed by GFP, even in those cells where the fura/GFP loading ratio is smallest. This could lead to a small (<5%) systemic underestimation of free calcium concentration that should distribute randomly across experimental groups.
Calcium mobilization in the absence of influx was measure by ratio imaging fura-2 in Purkinje cells bathed in Ca^+2-free external saline and stimulated with a micropressure pulse of quisqualate, a metabotropic glutamate receptor agonist (Linden, Neuron 17:483 1996). […] The decay phase of the Ca^+2 response appeared somewhat slower in neurons transfected with the truncated form. […]

Molecule: synthetic 10 mer peptide with the wild type Homer-ligand site; possibly SEQ ID NO:14 ALTPPSPFRD (extended region for peptide binding) [wild type peptide]
- IC50 [1]: ~3.4 µM

B1: Homer 1b: full-length Homer 1b expressed from pRK5 plasmid in Purkinje cells (protein, listed as Homo sapiens)
chain: MGEQPIFSTRAHVFQIDPNTKKNWVPTSKHAVTVSYFYDSTRNVYRIISLDGSKAIINSTITPNMTFTKTSQKFGQWADSRANTVYGLGFSSEHHLSKFAEKFQEFKEAARLAKEKSQEKMELTSTPSQESAGGDLQSPLTPESINGTDDERTPDVTQNSEPRAEPTQNALPFSHSSAISKHWEAELATLKGNNAKLTAALLESTANVKQWKQQLAAYQEEAERLHKRVTELECVSSQANAVHTHKTELNQTIQELEETLKLKEEEIERLKQEIDNARELQEQRDSLTQKLQEVEIRNKDLEGQLSDLEQRLEKSQNEQEAFRNNLKTLLEILDGKIFELTELRDNLAKLLECS
- mGluR-evoked Ca^+2 response amplitude [2]: 244 ± 17 nM
- mGluR-evoked Ca^+2 response latency [2]: 4.2 ± 0.9 s

B2: truncated form of Homer: 186 amino acid amino-terminal fragment of Homer 1b, lacks the coiled-coil domain, expressed by transfection (protein)
chain: MGEQPIFSTRAHVFQIDPNTKKNWVPTSKHAVTVSYFYDSTRNVYRIISLDGSKAIINSTITPNMTFTKTSQKFGQWADSRANTVYGLGFSSEHHLSKFAEKFQEFKEAARLAKEKSQEKMELTSTPSQESAGGDLQSPLTPESINGTDDERTPDVTQNSEPRAEPTQNALPFPHSSAISKHWEAE
modifications: left off: small tags and cut ends
notes: 186 amino acid amino-terminal fragment of Homer 1b, lacks the coiled-coil domain, expressed by transfection
- mGluR-evoked Ca^+2 response amplitude [2]: 170 ± 9 nM
- mGluR-evoked Ca^+2 response latency [2]: 10.5 ± 1.8 s
